± gives the standard deviation of the averaged measurements.
System: ATP
Test: switch fluorescence ratio, 500 uM ATP over buffer (Cy3 cluster intensity, sum of 5 cycles each) (fold (ratio)); higher = stronger signal-on switching upon ATP binding; sequences stand for … in TCGTCGGCAGCGTCAGATGTGTATAAGAGACAGTTTTTTTTTTTTTTTTTTTTTTTTT…TC
Conditions: aptamer strand: ATP DNA aptamer (quencher-CACCTGGGGGAGTATTGCGGAGGAAGG + anchor), 100 nM annealed; ATP concentration: 500 uM
How it was run: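 Switching-strand clusters labelled with Cy3 on a modified Illumina MiSeq flow-cell were annealed to 100 nM quencher-labelled ATP aptamer, imaged in selection buffer, and re-imaged after 15 min with 500 uM ATP at 22 °C. This was done over five cycles with NaOH stripping and re-annealing in between. The fluorescence ratio is summed target-cycle over summed buffer-cycle Cy3 intensity per cluster, averaged per switch-domain sequence, excluding clusters outside 100-1000 RFU.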
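Further: ATP exposure 15 min at 22 °C before imaging.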

| Sequence | switch fluorescence ratio |
| --- | --- |
| TGACTCGGTG | 0.984 ± 0.015 |
| TTTTTAGTGG | 0.981 ± 0.015 |
| GGATTGGGGA | 1.02 ± 0.031 |
| TTAGAGAGGT | 0.988 ± 0.03 |
| ACGCTGGTGT | 1.34 ± 0.44 |
| TATCCTTTGT | 1.22 ± 0.2 |
| AGGGGGCGGT | 0.959 ± 0.033 |
| ACTTTTAAGG | 0.983 ± 0.024 |
| AAAGGGGGTT | 1.04 ± 0.042 |
| AAGTCAAAGT | 1.03 ± 0.051 |
| ACGCTGTCGG | 1.006 ± 0.0068 |
| ACACGGGATG | 1.06 ± 0.077 |
| GATGGCATCG | 1.02 ± 0.014 |
| AGAGGGTTGG | 0.986 ± 0.022 |
| AGGCTCGGGG | 1.04 ± 0.026 |
| TTATAAAAGG | 1.031 ± 0.0021 |
| AATATCTGTT | 0.997 ± 0.019 |
| TTACAATTTG | 1.01 ± 0.039 |
| GTTTGTTCGC | 0.997 ± 0.076 |
| AGGACTTTCT | 1.036 ± 0.0013 |
| ATGTTTGAGT | 1.01 ± 0.026 |
| TGGATGTTTG | 1.02 ± 0.018 |
| TATGTACGTG | 1.02 ± 0.053 |
| GAATGTGGGT | 0.994 ± 0.013 |
| TTTCTTTTTA | 0.9791 ± 0.0032 |

| Sequence | switch fluorescence ratio |
| --- | --- |
| TCGTTATTTT | 1.04 ± 0.052 |
| ATGGGGGGAA | 0.996 ± 0.037 |
| AGTGTACTAG | 1.045 ± 0.0022 |
| CAAATGTTTG | 0.998 ± 0.02 |
| TTCAGTATGG | 0.9614 ± 0.0068 |
| GTGGGAGGGT | 0.984 ± 0.041 |
| GAAACTTGAC | 1.61 ± 0.039 |
| TACGGGGCGA | 1.07 ± 0.036 |
| TTTTCATTCG | 1 ± 0.033 |
| TTAAAAGTTG | 1.051 ± 0.0097 |
| AATGTTCGGT | 0.989 ± 0.011 |
| GTTAGGAATT | 0.985 ± 0.032 |
| GGGTGTGTTT | 0.985 ± 0.018 |
| TGAAATGGGG | 0.98 ± 0.049 |
| TATCGATGTT | 1.005 ± 0.0099 |
| GTGTAATTGG | 1.018 ± 0.0058 |
| TTTCGGGGCT | 1 ± 0.052 |
| CAAGCAAATT | 1.042 ± 0.0039 |
| ACTCGGTTGG | 1.03 ± 0.037 |
| AGGGAGTTTT | 1.01 ± 0.026 |
| ATGTGAGAAT | 0.998 ± 0.037 |
| GTGTAAACGT | 1.04 ± 0.05 |
| AATGAGGGGT | 0.966 ± 0.031 |
| AAATCGTCGG | 0.991 ± 0.024 |
| GATTACGGGG | 1.006 ± 0.0014 |

| Sequence | switch fluorescence ratio |
| --- | --- |
| AGGTCGTTTT | 0.991 ± 0.027 |
| GGGGACTGCG | 1.05 ± 0.023 |
| CCTCTATATT | 1.181 ± 0.011 |
| TAGGGTTGGT | 1.01 ± 0.046 |
| TTTGTACTGG | 1.01 ± 0.041 |
| AGAAGGCAAC | 1.015 ± 0.0017 |
| GTTACAAGAG | 0.9955 ± 0.0077 |
| TCCCATGGCG | 1.04 ± 0.062 |
| CAACGGGCCA | 1.01 ± 0.029 |
| TAGGCCAAGT | 0.989 ± 0.026 |
| TTTCAGGTTT | 0.983 ± 0.033 |
| GCCGGGGTGC | 1.06 ± 0.028 |
| ACGGAAAGTT | 0.9876 ± 0.0071 |
| CGGGATGTGC | 0.99328 ± 6e-06 |
| CGCGCAGAT | 1.02 ± 0.025 |
| TAGTAAGGGA | 1 ± 0.031 |
| GGTAAAGACG | 0.992 ± 0.013 |
| GAATGGGATT | 0.976 ± 0.018 |
| TATTGGTCGT | 0.968 ± 0.042 |
| GAGGTGGGGA | 0.9826 ± 0.0055 |
| AATATTTGAA | 1.02 ± 0.021 |
| TTTTTTTGCA | 1 ± 0.024 |
| GATTGAGACT | 1.01 ± 0.026 |
| TTTCCCGGGC | 1.01 ± 0.056 |
| CCCAGTGGGA | 2.25 ± 1.7 |

| Sequence | switch fluorescence ratio |
| --- | --- |
| GGGTCGCAGC | 0.998 ± 0.015 |
| AAAGCTTGAT | 1.01 ± 0.02 |
| TAGGGGGCTA | 0.995 ± 0.027 |
| TTTGTGATCA | 0.998 ± 0.032 |
| ATCGTCAGAA | 0.969 ± 0.0068 |
| GGCCAAGGTG | 2.05 ± 0.42 |
| TAATGGGGGG | 0.989 ± 0.037 |
| TTCTGTAATT | 1.02 ± 0.018 |
| GATGGCCGTG | 0.978 ± 0.018 |
| ATGTTTCAGG | 0.997 ± 0.018 |
| GGCCGAATGG | 1.03 ± 0.043 |
| GGTTATAGCT | 1.02 ± 0.034 |
| TGAAAGATCG | 1.02 ± 0.04 |
| AAGTAGGTAG | 0.9786 ± 0.002 |
| CCGTATAGCT | 1.24 ± 0.039 |
| CAGGCATGAG | 1.01 ± 0.011 |
| GAGAGTCATC | 1.035 ± 0.0087 |
| TATGGAGCCA | 1.02 ± 0.032 |
| TGTATAAAAA | 0.9906 ± 0.0039 |
| CTTGCATGGC | 1.077 ± 0.0092 |
| GGCAACTGGG | 1.02 ± 0.05 |
| CCCTTGATAC | 2.24 ± 0.1 |
| ATTGGCCCAT | 0.9642 ± 0.0017 |
| TTAGGACGGC | 0.876 ± 0.02 |
| TTTTTATTCG | 0.994 ± 0.019 |

| Sequence | switch fluorescence ratio |
| --- | --- |
| TCTCTGTTTT | 1.05 ± 0.022 |
| TTTTATCGGT | 0.979 ± 0.012 |
| TCGGAGTTTA | 1.04 ± 0.016 |
| AATAGTTATT | 0.9791 ± 0.003 |
| TTTGTCAAAC | 1.11 ± 0.13 |
| CGTGAGGGTG | 1.01 ± 0.079 |
| TAGGGCTGGG | 0.972 ± 0.048 |
| AGAGATGAGA | 1.02 ± 0.031 |
| ATCTATCCAC | 1.09 ± 0.037 |
| GACTGAGAGA | 1.024 ± 0.0035 |
| TTTTAGTTAG | 1.03 ± 0.058 |
| TTGTTGAAGG | 0.998 ± 0.038 |
| AGCGGATTCT | 0.984 ± 0.041 |
| CGCCGATATA | 1.12 ± 0.063 |
| TTACTCGACG | 1.06 ± 0.022 |
| TCGACATTAT | 1.034 ± 0.0055 |
| CTTTATTGGA | 0.971 ± 0.013 |
| CAGGAGTGTA | 1.03 ± 0.036 |
| GATTTTGGCG | 1.01 ± 0.046 |
| GACTTTGGGC | 1.01 ± 0.038 |
| AATTTACTCT | 1.07 ± 0.018 |
| CGGGTTTGAC | 0.984 ± 0.047 |
| GGGGTGAGGA | 0.981 ± 0.037 |
| ACGATTAGTT | 0.971 ± 0.032 |
| ACTTTTGGGG | 1.005 ± 0.0023 |

| Sequence | switch fluorescence ratio |
| --- | --- |
| ACATTTTGGT | 0.995 ± 0.03 |
| TACTAGGCG | 1.014 ± 0.0083 |
| GGAATTACTG | 1.04 ± 0.033 |
| AAATCCTTGT | 0.992 ± 0.039 |
| AAGGAGGGCA | 0.984 ± 0.016 |
| AGAAGTTTTG | 1.04 ± 0.054 |
| TGGCCGGGCA | 2.13 ± 1.6 |
| AAGTTAGTTT | 0.966 ± 0.043 |
| AAGCCAAGAG | 1.05 ± 0.027 |
| AAGTTCGTTG | 1.01 ± 0.036 |
| TGAAGCTTGG | 1.026 ± 0.0073 |
| TAATGCGGTT | 1.016 ± 0.004 |
| TGAAAGTTTG | 1.01 ± 0.026 |
| GTACTAAATT | 1 ± 0.023 |
| GTGGTTCCCG | 1 ± 0.0099 |
| GATGCAGTAT | 1.12 ± 0.044 |
| GAAGTCCGCG | 1.42 ± 0.077 |
| TGCTAGGGGG | 0.989 ± 0.02 |
| TCAATGGTTG | 0.988 ± 0.028 |
| TGGTGCTTGT | 1.02 ± 0.024 |
| TTCTTTGGAC | 1.0597 ± 0.0003 |
| CTTAGGTTTG | 1 ± 0.018 |
| TCGAGTCCTA | 0.9857 ± 0.0037 |
| TCTGAAAGTG | 0.989 ± 0.059 |
| AGGTCACAG | 1 ± 0.03 |

| Sequence | switch fluorescence ratio |
| --- | --- |
| GAGAGGGATG | 1.01 ± 0.043 |
| CCGAAGAGTC | 1.66 ± 0.28 |
| GGATTGTTGT | 0.994 ± 0.022 |
| GGCGGGGAAA | 0.981 ± 0.045 |
| TGACGACTGT | 1 ± 0.021 |
| ATTAGGGGAT | 1.01 ± 0.018 |
| GCGCCTGTAT | 0.986 ± 0.046 |
| CTATTATTCG | 1.01 ± 0.045 |
| TGTTGCCGGG | 1.0541 ± 0.00067 |
| TTAGGACTTG | 0.985 ± 0.015 |
| CGGGGGAACG | 1.01 ± 0.048 |
| CGGGAGAGTA | 1.54 ± 0.82 |
| TTTACACAGG | 1.17 ± 0.035 |
| GAATTTTTTA | 0.999 ± 0.018 |
| GAGCCGTATT | 1.02 ± 0.093 |
| TAGGGGGTAT | 1.02 ± 0.019 |
| GGGGCCGGGG | 1.01 ± 0.018 |
| GGGATTACGG | 0.9899 ± 0.0051 |
| CTCTGATAGC | 1.23 ± 0.013 |
| CCTTATTTTG | 1.05 ± 0.065 |
| GGGCGTTTGA | 1 ± 0.046 |
| CGTCGGGGTT | 0.973 ± 0.032 |
| TAATGTTTTG | 1.01 ± 0.018 |
| CGGTGGAATC | 1.36 ± 0.45 |
| TTACTCGTCT | 1.08 ± 0.056 |

| Sequence | switch fluorescence ratio |
| --- | --- |
| GTGGGGATTC | 0.971 ± 0.037 |
| TATTACAAT | 1.03 ± 0.052 |
| TGGTTGGGTG | 1.03 ± 0.059 |
| GCATGGAAGA | 0.992 ± 0.015 |
| TAAAATTATA | 1.02 ± 0.021 |
| ATTTTCAGAT | 1.003 ± 0.0045 |
| CGGAATAGCT | 1.22 ± 0.024 |
| GAAAGTATAA | 0.998 ± 0.013 |
| CTGTTTAATG | 0.9871 ± 0.0038 |
| TATATTGGGG | 0.991 ± 0.018 |
| ATATCCTCCC | 1.35 ± 0.016 |
| GAATTTCGAT | 0.976 ± 0.011 |
| TTCGATTGTT | 0.952 ± 0.018 |
| AAGTGCGGCG | 1.03 ± 0.029 |
| ACTTAAAATG | 1.06 ± 0.082 |
| AGTACTAAAG | 1.01 ± 0.033 |
| TTATTAAGGT | 1.01 ± 0.031 |
| AAGTACGCGG | 1.01 ± 0.046 |
| TCAAGGGGCT | 1 ± 0.013 |
| CTTAGCCTCA | 0.981 ± 0.034 |
| TCAGTGAGTG | 1 ± 0.033 |
| TTGCTAATCA | 1 ± 0.04 |
| AAACTTGGCT | 1.024 ± 0.0074 |
| GAATGGGTTA | 0.965 ± 0.018 |
| TTTTTGATGA | 1.02 ± 0.015 |
